± gives the uncertainty stated by the source.
Assay: amyloid nucleation score (Sup35N fusion, yeast selection) (log enrichment); library NNK1; higher = more nucleation; inactive = no reads after selection
Outline: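 DiMSum was used to calculate nucleation scores as log enrichment of output over input reads, centred on the mode score of non-aggregating sequences. Sequences with fewer than 100 input reads were not scored. Input and output came from Illumina sequencing of plasmid inserts in psi-negative yeast expressing peptides of 20 random codons fused to Sup35N, induced 24 hours with 100 μM copper sulfate and then grown 7 days at 30°C on medium lacking adenine and uracil.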

Substance | amyloid nucleation score
EVWNRTWIGEENVTGPFVPR | -0.012 ± 0.24
RNSRICSFS | 0.59 ± 0.35
RCFMFSTGEALTNEDRSLRR | 1.12 ± 0.6
ANELFTVDKKSVGYIPTHTL | 0.445 ± 0.56
FIVTYSNTIRYSMPSKLPWQ | 3.26 ± 0.077
IWYSDVGPTTN | -1.14 ± 0.56
GVLILCVSAKSRSAAVKQLS | 0.755 ± 0.68
CTAQTSCILW | 0.2 ± 0.29
PFQYADGTFF | 4 ± 0.15
RLSRKISSWLTRYIIAWSWS | -0.713 ± 0.61
RVGWMLNGAGALWFFRYKLN | -0.256 ± 0.7
CNELI | inactive
SSFRLQALPVEFHGVNYHLA | 0.182 ± 0.92
TMSSSNQSQMFPSVIYSEGH | -0.209 ± 0.9
SEYETG | 0.101 ± 0.34
FFILYINSQLIREVILRRAH | -0.128 ± 0.23
RWSETR | 0.998 ± 0.48
QFKRKIICQDKSVAFKCNYR | -0.493 ± 0.22
TLFLKDLSLLAFEFPLNISA | -0.507 ± 0.37
ICIYNSGIGLTGVRVWVQGL | inactive
VGRMPNGYVVGINIGLSRRL | -0.696 ± 1.7
PSILTVCLRV | 0.188 ± 0.41
EYMFGYVSLSVDGSTLEFHD | 0.107 ± 0.24
ALPIMKLMACVCGQKGMTYA | -0.047 ± 0.69
GSYECFHHLYCGWQSLLWAN | 0.854 ± 0.39

Substance | amyloid nucleation score
QLSFYSFCPMATYRSSNSDL | 5.92 ± 0.053
VVVRLRFRNSIPSILSQR | -0.304 ± 0.71
NSRSVVLMSVDFIILGYDKM | 3.56 ± 0.17
HSSNAAFCYAVTIYLQVLLV | 0.837 ± 0.66
STASQWQCHD | 0.461 ± 0.41
LDLAFSFLHSTNIWTTFGLC | -1.6 ± 1.4
PWYVIKV | -0.055 ± 0.31
LSRFRLFSYMYVLHKCNMGM | -0.777 ± 1.2
TGSLWRLRTSACWVLNHRKS | -1.09 ± 1
NSRSGLMNLVEKSLLYKMLY | -0.007 ± 0.48
GKEDRIG | -0.093 ± 0.81
WHWVAEWSMRTYSGLSIECY | inactive
ECRGQLSDKIVQYNRPEVYW | -0.199 ± 0.28
ICGTCCMPNLFVHHYIFLSP | 6.708 ± 0.063
KSTTLLVGSRSCGAHLQRLH | 0.462 ± 0.37
YTLMLCNVASVDSWI | 5.05 ± 0.063
SYDISYDFWVNLVAGRLTSM | 1.24 ± 0.6
FTWMRYQKHEGHFI | -0.447 ± 1.2
TSREGRGSLSVWSG | -0.19 ± 0.81
INYFQDD | -0.727 ± 1.4
FVEVMLIVNFTGLGVV | 0.576 ± 0.16
KMECVVRVSGCRDKVDWTAG | 2.53 ± 0.2
NKKESGWY | -0.387 ± 0.97
FYRFLQPMS | -0.809 ± 0.88
RYYGLFVYVARIYSALRSCK | -0.104 ± 0.33

Substance | amyloid nucleation score
YVPGTNILLIIGEICQVPTD | 2.18 ± 0.22
NMRTNNVGVGLPSFMHNSSF | inactive
MTSCMRWAVNRYSFLLWKAN | -0.416 ± 0.29
MNVGCSVVWIKCLNACTSKQ | 6.168 ± 0.06
FRVLNCVSYVFFQRHFRRCG | -0.974 ± 0.88
TVNGLPN | 0.885 ± 0.92
GACHLGDDYFRSSVVVTKSA | 0.232 ± 0.39
FLEFWPSVTVYSRCFLVFGR | -1.06 ± 1.1
KGDNIPLGAPSREMLTVYRA | -0.146 ± 0.5
YWIIKVRNRLVPRFFKYKGS | -0.491 ± 0.39
SVCTGRYPSRAHGEGASNTC | 0.08 ± 0.66
TVLGTSQGSCGWSNPSRNAR | -0.455 ± 1.7
RDKMDDWFQRHMESGTRTRE | 0.053 ± 0.23
VRGSVRCNVDYLICVYVHR | 1.46 ± 0.51
GYSYTCPLS | -0.217 ± 0.36
LQDFGKHPTLRCTVYRLHRP | -1.02 ± 0.83
CGTIKLSPFWWSVEDHACWM | 0.828 ± 0.57
IWRWPRMESKSGYHSDFNST | -1.32 ± 2.4
FYIFCDDFTGCS | 1.84 ± 0.11
DWVWWRTPSELVVYGADNWR | -0.328 ± 0.84
LAVRESIVQDKTWQDYE | -0.102 ± 0.18
MKQFIKNLNISLPPARTQLT | inactive
RKASYLSAVNMQFRESFLFW | -0.209 ± 0.28
YSADMFRADGLWFRGSRWG | 0.308 ± 0.57
FRSGFSLKARSVQMCDRF | 1.26 ± 0.42

Substance | amyloid nucleation score
FKVNRHLPELHLCKGTEWKL | inactive
NWIVCRPDAGMQPRTNNLIV | -0.536 ± 0.58
FEGILIKFCFGAWESDKVTM | 1.36 ± 0.59
GIVFIIQYS | inactive
FKEER | 0.133 ± 1.4
ESSGRGCVPSEKIDEHGPVT | -0.319 ± 1
LFMLWLCCIKVFNKGCFGRS | -0.297 ± 0.26
MTSAGSAWVYSYFYLGLIRK | -0.143 ± 0.53
GGIRRHTHGI | -0.746 ± 1.4
FCLMMEVGSVLRNLVPVSFR | -0.122 ± 1.4
MINVYK | 4.33 ± 0.073
IIREFSEGWVISKLDQD | -0.446 ± 0.3
HMADTRVADCSQLLR | 0.409 ± 0.81
IFHLCFLKGNGSFMLYKRHT | -0.462 ± 0.51
KLRSGCLDYIVIDLWTF | -0.439 ± 0.39
HSGQYCSAHPGFVK | -0.49 ± 0.5
SVPQLVPNHFRVSWANHS | -0.05 ± 1.4
YPGRLRCSRVMSEFVLNSAL | -1.27 ± 0.68
DDVMSKVPCVTTYSVVLLMR | 0.83 ± 0.78
FSGHNC | 0.299 ± 0.35
DVYKKIFLRLNCYQVSMRIE | -0.697 ± 0.27
SVDRMAYRMCMRNVRLNLCT | 0.962 ± 0.37
WISFYSPCMGRAISLSVVDV | 0.68 ± 0.54
LPCKIKKWIHWEFRSEFN | -2.06 ± 2.7
SLECLALTFVGYVTGRLMDL | -1.02 ± 1.7

Substance | amyloid nucleation score
EFELRASNLPFNVFPIGFSN | 1.07 ± 0.67
FSMLIDEELDFSAETSLRHG | 0.637 ± 0.59
DYLLCLILAKVWDDSNGSWV | 1.52 ± 0.5
QYCIHNNFEYDGL | -0.98 ± 0.47
YSVLNINLQFRSSLLGAFYP | 3.75 ± 0.063
LFSSYSLEE | 1.1 ± 0.77
KNAVSSGRSGKITRR | 0.231 ± 1.4
YSSLLVTLAEAWCIRLSNRR | 0.665 ± 0.84
FVAASNYQAIPYCYRMIYVS | -0.102 ± 0.4
RWCLSTRKFSWR | 0.305 ± 0.42
MVDMILLGRNFINKRMLCLG | 0.019 ± 0.64
VFRWRNKLRNNLCRGKYYWT | 2.08 ± 0.43
FFILSFNIRIYIFEVVTFLK | 0.555 ± 0.52
YANTTWSLTLTTVQHRNVAD | 3.35 ± 0.16
GYSIDIP | inactive
IVLWCTWYYNWNWPSALFRM | -0.192 ± 0.78
SSSRV | 0.111 ± 0.42
IAWFYRGPIKLLRLYIGGIW | -0.042 ± 0.73
TYLQRCSIFRPSLTSMG | 0.273 ± 0.45
CYVKTYKIKSLRR | -0.07 ± 1.4
VRDMHSHTLGYCRDGMYYFK | -0.403 ± 0.84
YTSIGI | -0.144 ± 0.45
FAAVPYISVLIRRLCLPYRT | 1.07 ± 0.7
LQRLY | -0.251 ± 0.35
DFAYMSVLWIVVMLRGFLVK | 0.639 ± 0.45

Substance | amyloid nucleation score
MSIAMDGYFYPSSAAPFFIT | -0.156 ± 0.42
VVSVMLAFYTKDSFVVWLNL | 1.02 ± 0.15
SRCRGSYTSSNSYWPAGDPM | -0.777 ± 1.7
SDAMSTHQRVNRF | 0.369 ± 0.55
AKWPARSPSLQLGNFWFDTT | 0.161 ± 0.59
VVILYIDRFGVLFHHLG | 0.821 ± 1.1
NRNISAIGACTGCTNMVFYS | 5.64 ± 0.11
TSIFDEMSHVEEVRRTMIRG | 0.209 ± 0.35
KMQPQMTCFS | -0.435 ± 0.53
HGLNVTLDVHGESYLHIYVW | -0.036 ± 0.62
FLWDL | 0.268 ± 0.75
VLYTTLHGFYHNCWLWLRYS | -0.191 ± 0.42
FSLDMSTCVLENFVLDTFQH | -2.21 ± 2.7
IWLFFFPMSLRFASYWTGLL | -1.1 ± 0.81
MLSNGGLHVRSK | 1.31 ± 0.93
TLVQCVSWISGSDKSHRMTI | -1.52 ± 2.7
IWVSGWNYVGRVVVEYQRLS | 0.444 ± 1.4
TSTSIGRVQCLYDSWRRTAW | 0.73 ± 0.62
VATPSSCVDSQAKTRMTGTL | -0.112 ± 0.44
YSSSRRDCRRPGTMYRPLPQ | -0.547 ± 0.55
AWDVLMHM | 0.248 ± 0.49
GVIYS | 0.077 ± 0.28
AKVYSGIPWWNFSTFLRGEV | -0.668 ± 1.4
VWGDRWTTVSGRSAEYRTKS | 1.34 ± 0.15
WTAGWL | -0.065 ± 0.44

Substance | amyloid nucleation score
TFQCCLDVCASVC | 0.273 ± 0.46
SSLQPLIFMRSIHLIVW | 0.265 ± 0.75
GFFPGHHSFLEATSLVSSLF | 1.4 ± 0.63
YSCIYKWHECNNVNDNMK | 0.149 ± 0.46
YDIRL | -0.376 ± 0.65
GTVPNVRKYPCFLCSMRR | -1.28 ± 1.4
CLVVYHSRKAW | 2.64 ± 0.16
YYYYPNGDCEKK | -0.657 ± 0.63
FVRAIMARVGFTFV | 0.569 ± 0.47
PCTPYLSTYVPLNEK | -0.017 ± 0.31
MSGVRYLCCL | 0.087 ± 0.58
AYKDGVTTLDLGCTGCFCYA | 4.7 ± 0.072
HSVVLILCLAL | 0.057 ± 1.2
FIQCVFHVCLRV | 4.68 ± 0.073
PTWSWWGSWHLGSMPGDNRR | 0.237 ± 0.78
YMPRSQIGSTSHVNWREMAE | -0.311 ± 0.33
LVPNLLVHGVYY | -2.39 ± 2.4
ERIRTHIRPIGCRRNLMVGW | 1.08 ± 0.63
AEAKN | -1.01 ± 0.9
AMFAMLNDRGRLGACYLVGK | 1.55 ± 0.78
YMLWSVPRLWCRVWLPTVAC | 0.585 ± 0.64
CYNNSCDKWGWASM | 1.22 ± 0.53
ISVKSW | -0.325 ± 0.98

Source: the supplement of paper PMC12042874
